Assay results published in publication PMC12785156.

Target: T1, hydroxylated His-AtHPPD (under oxidative stress, H2O2) (Arabidopsis thaliana), P93836
T1 chain: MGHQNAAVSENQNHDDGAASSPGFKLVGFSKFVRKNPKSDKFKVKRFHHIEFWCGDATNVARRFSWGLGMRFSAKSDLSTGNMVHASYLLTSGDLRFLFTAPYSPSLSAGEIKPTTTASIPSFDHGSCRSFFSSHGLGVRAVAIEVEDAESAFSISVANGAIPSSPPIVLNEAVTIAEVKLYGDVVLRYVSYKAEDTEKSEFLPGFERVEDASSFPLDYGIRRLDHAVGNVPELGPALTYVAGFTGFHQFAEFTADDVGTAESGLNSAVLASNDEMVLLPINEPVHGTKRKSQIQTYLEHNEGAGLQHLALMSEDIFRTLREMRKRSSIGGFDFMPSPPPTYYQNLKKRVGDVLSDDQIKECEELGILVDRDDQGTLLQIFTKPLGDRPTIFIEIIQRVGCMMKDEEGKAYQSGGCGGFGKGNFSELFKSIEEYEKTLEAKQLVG
Experiment: MST; as the MST of untreated His-AtHPPD, but AtHPPD under oxidative stress (H2O2, concentration not stated); GST-PUB11-ARM serially diluted; 25°C; 20 mM HEPES pH 8.0, 100 mM NaCl

- Kd: 2930 nM
B1: GST-PUB11-ARM (domain or fragment)
chain: QPAGYINGRTKNSGDMSVIRALVQRLSSRSTEDRRNAVSEIRSLSKRSTDNRILIAEAGAIPVLVNLLTSEDVATQENAITCVLNLSIYENNKELIMFAGAVTSIVQVLRAGTMEARENAAATLFSLSLADENKIIIGGSGAIPALVDLLENGTPRGKKDAATALFNLCIYHGNKGRAVRAGIVTALVKMLSDSTRHRMVDEALTILSVLANNQDAKSAIVKANTLPALIGILQTDQTRNRENAAAILLSLCKRDTEKLITIGRLGAVVPLMDLSKNGTERGKRKAISLLELLRKACQ
modifications: not checked
